This assay deals with T1, cytochrome f soluble domain lacking the transmembrane helix (Nostoc sp. PCC 7119, UniProt Q93SW9).
T1 chain: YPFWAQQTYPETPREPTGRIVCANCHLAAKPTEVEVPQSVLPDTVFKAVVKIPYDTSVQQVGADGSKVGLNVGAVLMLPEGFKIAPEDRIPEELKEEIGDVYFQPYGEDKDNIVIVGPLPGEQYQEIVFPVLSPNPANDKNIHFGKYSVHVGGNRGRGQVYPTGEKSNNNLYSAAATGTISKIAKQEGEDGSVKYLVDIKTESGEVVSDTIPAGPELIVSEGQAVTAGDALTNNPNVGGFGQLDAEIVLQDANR
The assay can be described thus: fluorescence titration.

B1: plastocyanin (protein)
chain: ETYTVKLGSDKGLLVFEPAKLTIKPGDTVEFLNNKVPPHNVVFDAALNPAKSADLAKSLSHKQLLMSPGQSTSTTFPADAPAGEYTFYCEPHRGAGMVGKITVAG
As for B1, the Kd – broadly, a measure of binding affinity in units of concentration – is 70 µM.

The values above are taken from paper PMC6442461 (2020).
